Test results as given in paper PMC6695518.

Key:
[1] = tested on: TbMex67 (Trypanosoma brucei); experiment: filter binding; conditions: TbMex67 alone; 10 mM Tris-HCl pH 7.4, 100 mM NaCl, 1 mM EDTA, 100 ug/ml BSA, 0.05 nM RNA, 0-200 nM protein, 30 min, room temperature; RNA preheated 55 C 10 min then ice
[2] = tested on: TbMex67;TbMtr2 (Trypanosoma brucei;Trypanosoma brucei); experiment: filter binding; conditions: TbMex67 and TbMtr2 preincubated together; Kd in total TbMex67; 10 mM Tris-HCl pH 7.4, 100 mM NaCl, 1 mM EDTA, 100 ug/ml BSA, 0.05 nM RNA, 0-200 nM protein, 30 min, room temperature; RNA preheated 55 C 10 min then ice
[3] = molecular target: recombinant His-tagged L5 (Trypanosoma brucei); experiment: co-IP; recombinant immune capture as above, with in vitro-transcribed 5S rRNA added before the proteins at an equal molar ratio; Western blot
[4] = molecular target: recombinant His-tagged P34 (Trypanosoma brucei); experiment: as above
P34/P37, endogenous [5] = experiment: co-IP; in vivo immune capture as above, with RNase A (50 ug) added to the whole-cell extract; Western blot for TbMex67; input set at 1.0
[6] = molecular target: ribosomal protein L5, endogenous (Trypanosoma brucei brucei strain 427 (endogenous in procyclic cells)); experiment: as above
P34/P37, endogenous [7] = experiment: co-IP; in vivo immune capture: 100 ug procyclic whole-cell extract with anti-P34/P37 or anti-L5 cross-linked protein A Dynabeads, PBS with 10 mg/ml BSA, 1 h at 4°C, without RNase A; Western blot for TbMex67; input set at 1.0
[8] = molecular target: ribosomal protein L5, endogenous (Trypanosoma brucei brucei strain 427 (endogenous in procyclic cells)); experiment: as above

**Q.** How did the Kd [1] turn out when 5S rRNA was run?
**A.** 0.041 µM

**Q.** And the Kd [2]?
**A.** 0.01 µM

**Q.** “recombinant His-tagged TbMex67 (natural protein)” was tested. Which ratio of TbMex67 in the pellet with 5S rRNA to without [3] did it give?
**A.** 0.94

**Q.** And the ratio of TbMex67 in the pellet with 5S rRNA to without [4]?
**A.** 0.94

**Q.** What does the source list for “Trypanosoma brucei Mex67 (TbMex67), endogenous (natural protein)”?
**A.** relative amount of TbMex67 in the pellet, with RNase A (relative to input set at 1.0) (P34/P37, endogenous [5]): 0.53; amount of TbMex67 in the pellet, with RNase A (relative to input set at 1.0) [6]: 0.8; relative total amount of TbMex67 in the pellet fraction (relative to input set at 1.0) (P34/P37, endogenous [7]): 0.35; fraction of the total amount of TbMex67 associated with L5 (relative to input set at 1.0) [8]: 0.43
